Target: GST-Rheb protein (UniProt Q15382 1-169)
Assay: BLI

Chain of GST-Rheb protein (Q15382 1-169): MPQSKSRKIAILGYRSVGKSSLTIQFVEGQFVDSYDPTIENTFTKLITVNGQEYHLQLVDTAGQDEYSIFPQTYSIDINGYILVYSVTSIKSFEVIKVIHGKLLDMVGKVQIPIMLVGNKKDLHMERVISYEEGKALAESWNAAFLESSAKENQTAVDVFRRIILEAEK

B1: His-IL-37d, recombinant human IL-37d protein with a TAT peptide (pET-22b-TAT-his-IL-37d; mature IL-37d 21–197aa) (other)
chain: YGRKKRRQRRREPQCCLEGPKVKNLNPKKFSIHDQDHKVLVLDSGNLIAVPDKNYIRPEIFFALASSLSSASAEKGSPILLGVSKGEFCLYCDKDKGQSHPSLQLKKEKLMKLAAQKESARRPFIFYRAQVGSWNMLESAAHPGWFICTSCNCNEPVGVTDKFENRKHIEFSFQPVCKAEMSPSEVSD
B1 was tested, and the koff was 0.00194 s⁻¹.

— publication PMC11192940 (2024)
